Data: article PMC3229523, “Identification of Lactoferricin B Intracellular Targets Using an Escherichia coli Proteome Chip” (PLoS ONE, 2011)
Ends that are not written are not given here. * marks the point of attachment. Biotin = O=C1N[C@H]2[C@H](CS[C@H]2CCCCC(=O)*)N1

Assays:
Assay in all cases: peptide or protein array; E. coli proteome chip: purified His-tagged proteins printed in duplicate on Fullmoon slides, blocked with 1% BSA; 10 nM N-terminal biotinylated LfcinB with 1% BSA, room temperature, 1 h; detected with DyLight 649-labeled streptavidin, ratio to DyLight 549-labeled anti-His antibody; ProCAT normalisation, local cut-off; triplicate chips
Settings in all cases: both partners purified
[1] = target: T1, YibA (E. coli K-12, UniProt P0ADK6 1-280)
T1 construct: YibA, E. coli K-12
T1 sequence (looked up): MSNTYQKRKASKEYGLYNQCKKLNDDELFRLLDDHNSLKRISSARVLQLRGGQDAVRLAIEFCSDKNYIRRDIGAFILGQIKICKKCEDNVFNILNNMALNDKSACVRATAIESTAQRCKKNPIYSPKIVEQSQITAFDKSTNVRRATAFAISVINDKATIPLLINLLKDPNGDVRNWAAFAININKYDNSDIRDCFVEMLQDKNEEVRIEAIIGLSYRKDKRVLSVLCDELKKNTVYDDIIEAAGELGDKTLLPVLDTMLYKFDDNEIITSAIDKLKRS

[2] = target: T2, YhiF (E. coli K-12, UniProt P37195 1-176)
T2 construct: YhiF, E. coli K-12
T2 sequence (looked up): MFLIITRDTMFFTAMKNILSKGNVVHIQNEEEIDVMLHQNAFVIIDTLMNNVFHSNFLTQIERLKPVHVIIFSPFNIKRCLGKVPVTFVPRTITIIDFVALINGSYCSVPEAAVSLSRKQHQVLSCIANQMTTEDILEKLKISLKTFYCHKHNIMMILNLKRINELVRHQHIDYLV

[3] = target: T3, YciT (E. coli K-12, UniProt P76034 1-249)
T3 construct: YciT, E. coli K-12
T3 sequence (looked up): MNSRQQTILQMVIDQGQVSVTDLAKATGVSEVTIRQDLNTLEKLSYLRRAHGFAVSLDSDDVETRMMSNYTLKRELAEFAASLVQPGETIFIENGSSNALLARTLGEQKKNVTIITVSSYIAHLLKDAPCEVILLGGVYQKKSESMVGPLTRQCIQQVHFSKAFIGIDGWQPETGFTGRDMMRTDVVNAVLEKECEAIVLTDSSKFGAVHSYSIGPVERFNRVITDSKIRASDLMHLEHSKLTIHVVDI

[4] = target: T4, DnaT (E. coli K-12, UniProt P0A8J2 1-179)
T4 construct: DnaT, E. coli K-12
T4 sequence (looked up): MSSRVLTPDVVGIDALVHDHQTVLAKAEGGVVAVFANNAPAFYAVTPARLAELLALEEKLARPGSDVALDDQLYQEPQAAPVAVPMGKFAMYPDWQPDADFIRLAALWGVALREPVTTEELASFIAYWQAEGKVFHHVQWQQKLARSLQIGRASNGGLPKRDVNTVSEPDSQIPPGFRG

[5] = target: T5, YjeJ (E. coli K-12, UniProt P39279 1-289)
T5 construct: YjeJ, E. coli K-12
T5 sequence (looked up): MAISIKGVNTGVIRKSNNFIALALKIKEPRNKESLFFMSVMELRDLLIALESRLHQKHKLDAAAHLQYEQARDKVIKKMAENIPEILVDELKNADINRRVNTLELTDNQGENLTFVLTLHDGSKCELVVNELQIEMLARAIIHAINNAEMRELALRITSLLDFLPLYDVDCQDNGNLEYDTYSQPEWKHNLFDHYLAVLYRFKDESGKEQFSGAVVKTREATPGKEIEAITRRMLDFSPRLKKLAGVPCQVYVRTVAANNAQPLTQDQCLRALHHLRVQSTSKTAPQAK

Measured: binding result

B1: N-terminal biotinylated Lactoferricin B (peptide, UniProt P24627 36-60, looked up)
peptide: Biotin-FKCRRWQWRMKKLGAPSITCVRRAF
modifications: ends and bridges not checked
notes: lactoferricin B (LfcinB), cationic antimicrobial peptide of 25 amino acids; also called biotinylated LfcinB; biotin-labeled LfcinB; source: bought: Kelowna Inc
binds: all assays above
